This is an account of results in the Human Domainome abundance scans (Beltran et al. 2025).

B1: Protein piccolo, residues 1058 to 1114; numbered along this chain, Q9Y6V0 (parent)
chain: TCPLCKTELNIGSKDPPNFNTCTECKNQVCNLCGFNPTPHLTEIQEWLCLNCQTQRA

± gives the uncertainty stated by the source.

Variants of B1 are the subject of this data set. Kind of data set: abundance fitness (aPCA) (normalised: wild type 0, dead -1); higher = more abundant; growth selection in yeast, the domain comes from the species named. Conditions: Homo sapiens.
Take TCPLCKTELNIGSKDPPNFNTCTECKNQVCNLCGFNPTPHLTEIQEWLCLNCMTQRA: the abundance fitness was -0.36 ± 0.18.
As for TCPLCKTELNIGSKDPPNFNTCTECKNQVCNLCGFNPTPHLTEIQEWLCLNCYTQRA, the abundance fitness is -0.23 ± 0.18.
The result for TCPLCKTELNIGSKDPPNFNTCTECKNQVCNLCGFNPTPHLTEIQEWLCLNCFTQRA reads -0.275 ± 0.26; that for TCPLCKTELNIGSKDPPNFNTCTECKNQVCNLCGFNPTPHLTEIQEWLCLNCTTQRA, -0.067 ± 0.22.
Consider TCPLCKTELNIGSKDPPNFNTCTECKNQVCNLCGFNPTPHLTEIQEWLCLNCCTQRA, for which the abundance fitness was -0.464 ± 0.15.
The result for TCPLCKTELNIGSKDPPNFNTCTECKNQVCNLCGFNPTPHLTEIQEWLCLNCLTQRA reads -0.386 ± 0.11.
For TCPLCKTELNIGSKDPPNFNTCTECKNQVCNLCGFNPTPHLTEIQEWLCLNCRTQRA, the abundance fitness came out at 0.099 ± 0.1.
For the variant TCPLCKTELNIGSKDPPNFNTCTECKNQVCNLCGFNPTPHLTEIQEWLCLNCGTQRA, the abundance fitness was -0.016 ± 0.1.
As for TCPLCKTELNIGSKDPPNFNTCTECKNQVCNLCGFNPTPHLTEIQEWLCLNCDTQRA, the figure is 0.099 ± 0.22.
Regarding TCPLCKTELNIGSKDPPNFNTCTECKNQVCNLCGFNPTPHLTEIQEWLCLNCKTQRA, the abundance fitness was determined as 0.115 ± 0.21.
As for TCPLCKTELNIGSKDPPNFNTCTECKNQVCNLCGFNPTPHLTEIQEWLCLNCITQRA, the abundance fitness is -0.25 ± 0.22.
As to TCPLCKTELNIGSKDPPNFNTCTECKNQVCNLCGFNPTPHLTEIQEWLCLNCVTQRA, the abundance fitness was -0.256 ± 0.12.
Turning to TCPLCKTELNIGSKDPPNFNTCTECKNQVCNLCGFNPTPHLTEIQEWLCLNCNTQRA, the abundance fitness is 0.118 ± 0.39.
As to TCPLCKTELNIGSKDPPNFNTCTECKNQVCNLCGFNPTPHLTEIQEWLCLNCSTQRA, the abundance fitness was 0.028 ± 0.12.
For TCPLCKTELNIGSKDPPNFNTCTECKNQVCNLCGFNPTPHLTEIQEWLCLNCWTQRA, the abundance fitness was -0.383 ± 0.12.
On to TCPLCKTELNIGSKDPPNFNTCTECKNQVCNLCGFNPTPHLTEIQEWLCLNCATQRA, for which the abundance fitness was -0.249 ± 0.17.
As for TCPLCKTELNIGSKDPPNFNTCTECKNQVCNLCGFNPTPHLTEIQEWLCLNCETQRA, the abundance fitness is -0.074 ± 0.18.
With TCPLCKTELNIGSKDPPNFNTCTECKNQVCNLCGFNPTPHLTEIQEWLCLNRQTQRA, the abundance fitness was -0.701 ± 0.13.
As for TCPLCKTELNIGSKDPPNFNTCTECKNQVCNLCGFNPTPHLTEIQEWLCLNWQTQRA, the abundance fitness was -1.14 ± 0.32.
Regarding TCPLCKTELNIGSKDPPNFNTCTECKNQVCNLCGFNPTPHLTEIQEWLCLNHQTQRA, the abundance fitness was -0.273 ± 0.17.
As for TCPLCKTELNIGSKDPPNFNTCTECKNQVCNLCGFNPTPHLTEIQEWLCLNNQTQRA, the abundance fitness is -0.876 ± 0.36.
In the case of TCPLCKTELNIGSKDPPNFNTCTECKNQVCNLCGFNPTPHLTEIQEWLCLNQQTQRA, the abundance fitness is -0.841 ± 0.19.
Turning to TCPLCKTELNIGSKDPPNFNTCTECKNQVCNLCGFNPTPHLTEIQEWLCLNYQTQRA, the abundance fitness is -0.841 ± 0.16.
TCPLCKTELNIGSKDPPNFNTCTECKNQVCNLCGFNPTPHLTEIQEWLCLNEQTQRA: the abundance fitness was -0.448 ± 0.16.
As for TCPLCKTELNIGSKDPPNFNTCTECKNQVCNLCGFNPTPHLTEIQEWLCLNPQTQRA, the abundance fitness is -1.2 ± 0.23.
As to TCPLCKTELNIGSKDPPNFNTCTECKNQVCNLCGFNPTPHLTEIQEWLCLNKQTQRA, the abundance fitness was -0.801 ± 0.29.
TCPLCKTELNIGSKDPPNFNTCTECKNQVCNLCGFNPTPHLTEIQEWLCLNAQTQRA: the abundance fitness was -0.85 ± 0.16.
As for TCPLCKTELNIGSKDPPNFNTCTECKNQVCNLCGFNPTPHLTEIQEWLCLNTQTQRA, the figure is -0.842 ± 0.21; as for TCPLCKTELNIGSKDPPNFNTCTECKNQVCNLCGFNPTPHLTEIQEWLCLNFQTQRA, -1.06 ± 0.18.
Take TCPLCKTELNIGSKDPPNFNTCTECKNQVCNLCGFNPTPHLTEIQEWLCLNMQTQRA: the abundance fitness is -0.981 ± 0.23.
In the case of TCPLCKTELNIGSKDPPNFNTCTECKNQVCNLCGFNPTPHLTEIQEWLCLNDQTQRA, the abundance fitness was -0.755 ± 0.23.
The result for TCPLCKTELNIGSKDPPNFNTCTECKNQVCNLCGFNPTPHLTEIQEWLCLNSQTQRA reads -0.709 ± 0.13; that for TCPLCKTELNIGSKDPPNFNTCTECKNQVCNLCGFNPTPHLTEIQEWLCLNGQTQRA, -0.727 ± 0.12; that for TCPLCKTELNIGSKDPPNFNTCTECKNQVCNLCGFNPTPHLTEIQEWLCLNCQPQRA, 0.156 ± 0.12.
As to TCPLCKTELNIGSKDPPNFNTCTECKNQVCNLCGFNPTPHLTEIQEWLCLNCQAQRA, the abundance fitness stood at 0.049 ± 0.12.
On to TCPLCKTELNIGSKDPPNFNTCTECKNQVCNLCGFNPTPHLTEIQEWLCLNCQHQRA, for which the abundance fitness was -0.076 ± 0.29.
For the variant TCPLCKTELNIGSKDPPNFNTCTECKNQVCNLCGFNPTPHLTEIQEWLCLNCQIQRA, the abundance fitness is -0.37 ± 0.18.
Regarding TCPLCKTELNIGSKDPPNFNTCTECKNQVCNLCGFNPTPHLTEIQEWLCLNCQWQRA, the abundance fitness was -0.441 ± 0.15.
For TCPLCKTELNIGSKDPPNFNTCTECKNQVCNLCGFNPTPHLTEIQEWLCLNCQQQRA, the abundance fitness was determined as 0.214 ± 0.13.
The result for TCPLCKTELNIGSKDPPNFNTCTECKNQVCNLCGFNPTPHLTEIQEWLCLNCQEQRA reads 0.231 ± 0.17.
Regarding TCPLCKTELNIGSKDPPNFNTCTECKNQVCNLCGFNPTPHLTEIQEWLCLNCQGQRA, the abundance fitness stood at 0.046 ± 0.14.
In the case of TCPLCKTELNIGSKDPPNFNTCTECKNQVCNLCGFNPTPHLTEIQEWLCLNCQMQRA, the abundance fitness was -0.602 ± 0.17.
Regarding TCPLCKTELNIGSKDPPNFNTCTECKNQVCNLCGFNPTPHLTEIQEWLCLNCQFQRA, the abundance fitness is -0.79 ± 0.16.
Consider TCPLCKTELNIGSKDPPNFNTCTECKNQVCNLCGFNPTPHLTEIQEWLCLNCQLQRA, for which the abundance fitness was -0.531 ± 0.1.
Consider TCPLCKTELNIGSKDPPNFNTCTECKNQVCNLCGFNPTPHLTEIQEWLCLNCQYQRA, for which the abundance fitness was -0.369 ± 0.23.
